Tests used:
TREM-1 [1] = assay: Rat model of sepsis-induced cardiac dysfunction, intrinsic cardiac function by Millar catheter; assay type: in vivo; design: dpdtmax/Ved / PRSW: unit not given beside the values; FEVG / ESPVR: unit not given here
From the text: TREM-1- and TLT-1-derived peptides administration during rat model of sepsis-induced cardiac dysfunction is associated with an increase of intrinsic cardiac function measured by Millar catheter (FEVG, ESPVR, dpdtmax/Ved, PRSW).
Rats were anaesthetized with isoflurane and a 2 F high-fidelity micro-manometer catheter (SPR-407, Millar Institute, Houston, Tex., USA) was inserted into the LV via the right carotid artery. The Millar catheter was connected to a Harvard Data Acquisition System interfaced with a PC with the AcqKnowledge III software (ACQ 3.2).

TREM-1 [2] = biological target: T1, TREM-1 (Sus scrofa, UniProt Q6TYI6); assay: Mini-pig model of sepsis (peritonitis): sepsis-induced hypotension and cardiac dysfunction; assay type: in vivo, mini-pig (Sus scrofa domestica)
T1 construct: endogenous in cells; host or cells: living mini-pigs (in vivo)
T1 sequence (Q6TYI6 21-238): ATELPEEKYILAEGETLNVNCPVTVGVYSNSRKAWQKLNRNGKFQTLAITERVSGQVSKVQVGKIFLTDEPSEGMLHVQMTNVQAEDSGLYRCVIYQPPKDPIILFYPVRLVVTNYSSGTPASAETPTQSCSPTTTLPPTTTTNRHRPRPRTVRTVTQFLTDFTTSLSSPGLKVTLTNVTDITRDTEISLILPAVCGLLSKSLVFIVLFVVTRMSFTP
Protocol: Adult male mini-pigs (Sus scrofa domestica, Vietnamese pot-belied mini-pigs, 30-40 kg) were purchased from Elevage Ferry (Vosges, France). Before surgery, animals were fasted overnight with free access to water. Preanesthesia was performed through intramuscular administration of ketamine (10 mg/kg) and midazolam (0.1 mg/kg). Anesthesia was induced and maintained with intravenous pentobarbital (initial bolus: 10 mg/kg, and continuous administration 6-8 mg/kg/h), intermittent sufentanyl (10 μg), and pancuronium (4 mg) if necessary. Animals were mechanically ventilated (tidal volume 8 ml/kg, PEEP 5 cm H2O, FiO2 0.21, respiratory rate 14-16 breaths/min adjusted to maintain normocapnia). Left jugular vein was exposed and a triple-lumen line was inserted. Right jugular vein was also catheterized and a Swan-Ganz catheter was positioned allowing the continuous recording of cardiac output, SvO2, and right atria and pulmonary arterial pressures. A right carotid arterial catheter was inserted for continuous measurement of arterial pressure. A catheter in the bladder allowed urine collection.
After instrumentation, a midline laparotomy was performed to collect feces from the left colon: 1.5 g/kg were suspended in 200 mL of 0.9% NaCl and incubated at 38° C. for 2 hours. After surgery, a tube was left in place for the peritonitis induction and ascites drainage.
After surgery, animals were allowed to recover for 2 hours before baseline measurements (defined as ‘H0’). Normal saline was continuously administered (10 mL/kg/h) throughout the study. Body temperature was kept constant (±1° C.) using heating pads or cooling.
After baseline data collection (H0), peritonitis was induced by administration of autologous feces through the abdominal tube which was subsequently maintained clamped. After 2 hours (H2), animals were randomized to receive LR12 (LR12 group, n=6) or the vehicle (normal saline) alone (Control group, n=5). A bolus of 5 mg/kg (in 60 mL) was intravenously delivered over 30 minutes, then a 1 mg/kg/h (15 mL/h) infusion was started and lasted throughout the study period.
Animal care was then provided by an experienced intensive care physician with strict adhesion to the following guidelines throughout the study period:
i) Hemodynamic targets: the main objective was to maintain mean arterial pressure (MAP) above 85 mmHg. To achieve this goal and in addition to the maintenance 0.9% NaCl administration (7 mL/kg/h), hydroxyethyl starch (up to 20 mL/kg for the entire study period) (HES 130/0.4, Voluven®, Fresenius) was allowed provided that central venous pressure (CVP) and pulmonary artery occlusion pressure (PAOP) was <18 mmHg. When hydroxyethyl starch maximal volume was reached, a continuous infusion of norepinephrine was started up to 10 μg/kg/min.
Hemodynamic parameters were continuously monitored including MAP, mean pulmonary artery pressure (MPAP), right atrial pressure (RAP), cardiac output (CO), cardiac index (CI), and SvO2. Systemic oxygen delivery (DO2) and systemic oxygen uptake (VO2) were calculated by the Swan-Ganz monitor. Cardiac Power Index (W/m^2) was calculated as MAP×CI/451 (24).

Sequence: LQEEDAGEYGCM (listed as Homo sapiens) [TLT1-LR12]
- ESPVR (TREM-1 [1]): 2.7 ± 0.1
- FEVG (TREM-1 [1]): 77.2 ± 9.2
- PRSW (TREM-1 [1]): 143 ± 7
- dpdtmax/Ved (TREM-1 [1]): 158 ± 18
- animals in which norepinephrine was started by H12 to maintain MAP >85 mmHg (TREM-1 [2]; mini-pig peritonitis): 1/6
- volume rescucitation (TREM-1 [2]; mini-pig peritonitis, 5 mg/kg bolus then 1 mg/kg/h i.v.): 6500 ± 800 mL
- progressive lactic acidosis (TREM-1 [2]; p=0.0005): largely attenuated
- cardiac failure (cardiac index, cardiac power index, SvO2, DO2) (TREM-1 [2]; versus controls): significant beneficial effects in attenuating cardiac failure
- norepinephrine infusion rate needed to maintain blood pressure (TREM-1 [2]; versus controls): significantly lower

— patent publication US9657081B2, “Inhibiting peptides derived from triggering receptor expressed on myeloid cells-1 (TREM-1) TREM-like transcript 1 (TLT-1) for treatment of cardiovascular diseases” (INSERM (Institut National de la Sante et de la Recherche …, priority 2013, dated 2017)
